The test addresses M2 peptide (extracellular 23-amino-acid M2 peptide) (influenza A virus). The experiment in a line: ELISA, peptide coated, antibody 10 µg/ml. Background: An ELISA detects its analyte on a solid surface through an enzyme-linked reagent.

For the substance mouse anti-M2 antibody 14C2, the ELISA (OD450) stood at 1.97 OD450.

For the origin of these results see patent publication US20050170334A1.
